Results published in patent US20200291444A1, “Macrocyclisation Tags” (Oxford University Innovation LTD, priority 2017, published 2020).

How the values were obtained:
[1] = target: T1, GmPOPB_S577A (Galerina marginata), H2E7Q8; experiment: ITC, peptide titrated into GmPOPB_S577A, 20 C
T1 chain: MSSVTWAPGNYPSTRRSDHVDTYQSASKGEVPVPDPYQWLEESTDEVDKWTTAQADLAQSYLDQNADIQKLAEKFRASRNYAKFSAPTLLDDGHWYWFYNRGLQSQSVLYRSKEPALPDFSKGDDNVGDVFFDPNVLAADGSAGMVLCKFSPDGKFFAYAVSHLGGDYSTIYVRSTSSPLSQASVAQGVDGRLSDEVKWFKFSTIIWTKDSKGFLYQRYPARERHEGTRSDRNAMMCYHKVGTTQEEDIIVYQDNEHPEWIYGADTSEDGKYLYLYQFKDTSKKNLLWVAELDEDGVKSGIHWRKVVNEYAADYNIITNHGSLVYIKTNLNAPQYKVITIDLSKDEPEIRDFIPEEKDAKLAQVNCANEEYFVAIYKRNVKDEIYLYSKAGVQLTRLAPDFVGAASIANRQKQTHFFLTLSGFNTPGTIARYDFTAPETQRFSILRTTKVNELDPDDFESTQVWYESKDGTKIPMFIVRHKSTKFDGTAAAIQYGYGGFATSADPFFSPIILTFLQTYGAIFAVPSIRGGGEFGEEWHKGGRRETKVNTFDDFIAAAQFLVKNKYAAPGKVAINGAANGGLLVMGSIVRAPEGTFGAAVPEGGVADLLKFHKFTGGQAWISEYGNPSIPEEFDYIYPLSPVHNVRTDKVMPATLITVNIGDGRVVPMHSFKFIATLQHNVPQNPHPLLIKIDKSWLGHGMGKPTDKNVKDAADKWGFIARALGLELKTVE

[2] = target: T1, GmPOPB_S577A (Galerina marginata), …; experiment: ITC
[3] = target: T1, GmPOPB_S577A (Galerina marginata), …; experiment: ITC, 20 C, single-site model

B1: 11mer truncated substrate (peptide)
peptide: IWGIGCNPWTA
modifications: not checked
Kd [1]: 39 µM

B2: 10mer truncated substrate (peptide)
peptide: IWGIGCNPWT
modifications: not checked
Kd [1]: 83 µM

B3: 14mer truncated substrate (peptide)
peptide: IWGIGCNPWTAEHV
modifications: not checked
Kd [1]: 9.5 µM

B4: 12mer truncated substrate (peptide)
peptide: IWGIGCNPWTAE
modifications: not checked
Kd [1]: 21 µM

B5: 13mer truncated substrate (peptide)
peptide: IWGIGCNPWTAEH
modifications: not checked
fold difference in affinity against the 35mer [2]: 20 fold | fold reduction in binding against the 35mer [2]: 10 fold | Kd [1]: 2.4 µM

B6: truncated recognition sequence … (peptide)
peptide: TLASGNDIC
modifications: not checked
Kd [1]: 121 µM

B7: truncated recognition sequence … (peptide)
peptide: VDQTLASGNDIC
modifications: not checked
fold reduction of binding affinity against the 17mer recognition sequence [2]: 20 fold | Kd [1]: 5 µM

B8: recognition sequence (17mer) … (peptide)
peptide: WTAEHVDQTLASGNDIC
modifications: not checked
Kd [3]: 0.43 µM
